Data as given in PMC12148588 (eBioMedicine, 2025).

Target: T1, SARS-CoV-2 RBD of the VOC Delta (Acro Biosystems SPD-C82Ed-25) (SARS-CoV-2, VOC Delta (B.1.617.2), strain)
T1 construct: source: bought: Acro Biosystems
Experiment: SPR; Biacore 8K+, […]; 10 mM HEPES pH 7.4, 150 mM NaCl, 3 mM EDTA, 0.05% Tween 20; […]
Settings: both partners purified

B1: MB025_A09Lgl (antibody, V domains shown)
VH: EVQLVESGGGLVQPGGSLRLSCAASGFTVSSNYMSWVRQAPGKGLEWVSVIYSGGSTYYADSVKGRFTISRHNSKNTLYLQMNSLRAEDTAVYYCARGVDYRTNRTEGGAFDIWGQGTMVTVSS
VL: QSALTQPASVSGSPGQSITISCTGTSSDVGSYNLVSWYQQHPGKAPKLMIYEGSKRPSGVSNRFSGSKSGNTASLTISGLQAEDEADYYCCSYAGSSTWMFGGGTKLTVL
  Kd: 731 nM
